From publication PMC2780661

Key:
[1] = molecular target: ATP synthase from mitochondria of Zea mays (Z. mays (endogenous in mitochondria)); test: single particle electron microscopy
[2] = molecular target: Complex III2 from potato (potato)

“ATP synthase from mitochondria of Zea mays (complex)” showed a stoichiometry N [1] of 2.

Complex I from potato showed a stoichiometry N [2] of 2.
